The source of these data is patent US8071348B2, “Protein tyrosine phosphatase substrate-trapping double mutant and uses thereof” (Albert Einstein College of Medicine of Yeshiva University, priority 2002, dated 2011).

For data set [1], the system named is EGFR^988-998 peptide, DADEpYLIPQQG. Nature of the data set: Kinetic constants for PTP1B-catalyzed hydrolysis of pTyr-containing EGFR988-998 peptide. Format: biochemical. To be noted: EGFR988-998 peptide as substrate. An excerpt: The catalytic domain of PTP1B (residues 1 to 321) was used for in vitro study. PTP1B mutants, C215S, D181A, and Q262A, were described previously (9, 25, 26). PTP1B double mutants, D181A/C215S and C215S/Q262A, were generated by PCR reactions, according to the standard procedure of the Quick-Change™ site-directed mutagenesis kit (Stratagene), using pT7-7/PTP1B/C215S as a template. PTP1B double mutants, D181A/C215E and D181A/Q262A, were generated by similar PCR procedures, using pT7-7/PTP1B/D181A as a template. The recombinant wild-type and mutant PTP1Bs were expressed in E. coli, and purified to homogeneity as described (25, 27). Protein concentration was determined from absorbance measurement at 280 nm, using an absorbance coefficient of 1.24 for 1 mg/ml PTP1B.
All assays were performed at 25° C. in buffer (pH 7.0, ionic strength=0.15 M) containing 50 mM 3,3-dimethylglutarate and 1 mM EDTA. A continuous spectrophotometric assay, previously described (28), was employed to determine kcat and Km for the pTyr-containing peptides. The dephosphorylation reaction was monitored by either an increase in absorbance at 282 nm, or an increase in fluorescence at 305 nm. Fluorometric and absorbance determinations were performed on a Perkin-Elmer LS50B fluorometer and a Perkin-Elmer Lambda 14 spectrophotometer, respectively. The instruments were equipped with a water-jacketed cell holder, permitting maintenance of the reaction mixture at the desired temperature (25° C.).

In data set [2] the target is T1, Ac-Asp-Ala-Asp-Glu-F2Pmp-Leu-NH2 (Homo sapiens, UniProt P18031, C215S).
T1 construct: The catalytic domain of PTP1B (residues 1 to 321) was used for in vitro study; made in house; host or cells: E. coli (pT7-7 plasmids)
T1 sequence (P18031 1-321 C215S): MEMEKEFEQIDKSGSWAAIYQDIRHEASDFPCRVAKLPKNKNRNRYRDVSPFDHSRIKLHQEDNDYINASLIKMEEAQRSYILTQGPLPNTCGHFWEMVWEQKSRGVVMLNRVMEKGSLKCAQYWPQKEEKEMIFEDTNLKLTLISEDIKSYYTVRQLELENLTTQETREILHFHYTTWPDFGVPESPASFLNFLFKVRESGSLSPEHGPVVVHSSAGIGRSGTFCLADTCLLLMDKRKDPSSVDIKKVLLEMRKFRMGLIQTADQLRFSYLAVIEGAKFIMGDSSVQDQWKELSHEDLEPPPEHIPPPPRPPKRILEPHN
Nature of the data set: Isothermal titration calorimetry, binding of PTP1B and mutants to F2Pmp peptide. As to conditions: lower temperature (15° C.). As to the method: (§1) FIG. 3 portrays calorimetric isothermal titration for the reaction of peptide Ac-Asp-Ala-Asp-Glu-F2Pmp-Leu-NH2 with PTP1B/D181A/Q262A. The upper graph depicts raw data for thirty 8-μl injections of the peptide (0.5 mM stock) into the isothermal cell containing 32 μM PTP1B/D181A/Q262A, at 4-min intervals and 25° C. Both the protein and the peptide were in 50 mM 3,3-dimethylglutarate buffer (I=0.15 M, pH 7.0) containing 1 mM DTT. The lower graph depicts an integration curve showing experimental points that were obtained by integration of the above peaks as plotted against the molar ratio of the peptide to PTP1B/D181A/Q262A within the reaction cell. The solid line corresponds to the best fit to the data according to the nonlinear, least-squares regression algorithm, ORIGIN (29).
(§2) All isothermal titration calorimetry experiments were performed using an MCS Isothermal Titration Calorimetry System from Microcal Inc. (Northampton, Mass.). […] The ionic strength of the buffer was adjusted to 0.15 M by addition of NaCl. Protein concentration in the calorimeter cell was 27-85 μM, while the ligand concentration in the syringe was 0.37-1 mM.
(§3) The PTP1B samples used in the isothermal titration calorimetry experiments were dialyzed completely against buffer. High-concentration stock solutions were prepared for ligands with distilled water, and adjusted to pH 7.0. Stock was diluted at least 26-fold with 50 mM 3,3-dimethylglutarate buffer before titration. Protein dilution during titration was determined by titration of buffer into the protein solution. […] The heat of ligand dilution was corrected by subtracting the average heat of injection after saturation.
(§4) The binding data were analyzed using ORIGIN software (29). Binding constant, K, and enthalpy change, ΔH, were used to calculate free energy change, ΔG, and entropy change, ΔS, according to equation [1]: −RTLnK=ΔG=ΔH−TΔS [1] where R is the gas constant and T is the absolute temperature.
For orientation: Isothermal titration calorimetry measures the heat released or taken up as one component is titrated into another.

The test system of data set [3] is Ac-Asp-Ala-Asp-Glu-F2Pmp-Leu-NH2. To be noted: cited from earlier work.
Data set [4] has as its target T2, Ac-Asp-Ala-Asp-Glu-F2Pmp-Leu-NH2 (Homo sapiens, UniProt P18031, C215S/Q262A).
T2 construct: The catalytic domain of PTP1B (residues 1 to 321) was used for in vitro study; made in house; host or cells: E. coli (pT7-7 plasmids)
T2 sequence (P18031 1-321 C215S/Q262A): T1 sequence (P18031 1-321 C215S) with Q262A
Nature of the data set: Isothermal titration calorimetry, binding of PTP1B and mutants to F2Pmp peptide. To be noted: 25° C.; one peak absorbing heat, the other releasing heat. Here is the method:
as §1, §2, §3, §4

Data set [5] has as its target T3, PTP1B/D181A/Q262A, catalytic domain (residues 1 to 321) (human, UniProt P18031 1-321).
T3 construct: range 1-321; Used in vitro (ITC, kinetics); also called PTP1B substrate-trapping double mutant
T3 sequence (looked up): T1 sequence (P18031 1-321 C215S) with D181A, S215C, Q262A
Nature of the data set: ITC, 25 C, pH 7.0. As to the method: (§5) All isothermal titration calorimetry experiments were performed using an MCS Isothermal Titration Calorimetry System from Microcal Inc. (Northampton, Mass.). Experiments at pH 7.0 were conducted at 25° C., in 50 mM 3,3-dimethylglutarate buffer containing 1 mM DTT. The ionic strength of the buffer was adjusted to 0.15 M by addition of NaCl. Protein concentration in the calorimeter cell was 27-85 µM, while the ligand concentration in the syringe was 0.37-1 mM.
(§6) The PTP1B samples used in the isothermal titration calorimetry experiments were dialyzed completely against buffer. High-concentration stock solutions were prepared for ligands with distilled water, and adjusted to pH 7.0. […] Protein dilution during titration was determined by titration of buffer into the protein solution. […] The heat of ligand dilution was corrected by subtracting the average heat of injection after saturation.
(§7) A typical titration curve and binding isotherm for the binding of D181A/Q262A to Ac-Asp-Ala-Asp-Glu-F_2Pmp-Leu-NH_2 is shown in FIG. 3. From curve-fitting of the binding isotherms, the stoichiometry for the binding of the peptide to D181A/Q262A was determined to be 1:1.

The target in data set [6] is T4, PTP1B/D181A/C215E, catalytic domain (residues 1 to 321) (human, UniProt P18031 1-321).
T4 construct: range 1-321; Used in vitro (ITC)
T4 sequence (looked up): T1 sequence (P18031 1-321 C215S) with D181A, S215E
In words: ITC, 25 C, pH 7.0. Here is the method:
as §5, §6, §7

Substitutions are numbered along the chain they refer to. Names may count otherwise. [ ]: non-standard residue; d: D form. F2Pmp = N[C@@H](Cc1ccc(C(F)(F)P(=O)(O)O)cc1)C(=O)O

B1: C215S: existing PTP1B substrate-trapping mutant, active site Cys215 replaced by Ser (protein, UniProt P18031 1-435, looked up, variant C215S)
Tyrosine-protein phosphatase …: MEMEKEFEQIDKSGSWAAIYQDIRHEASDFPCRVAKLPKNKNRNRYRDVSPFDHSRIKLHQEDNDYINASLIKMEEAQRSYILTQGPLPNTCGHFWEMVWEQKSRGVVMLNRVMEKGSLKCAQYWPQKEEKEMIFEDTNLKLTLISEDIKSYYTVRQLELENLTTQETREILHFHYTTWPDFGVPESPASFLNFLFKVRESGSLSPEHGPVVVHSSAGIGRSGTFCLADTCLLLMDKRKDPSSVDIKKVLLEMRKFRMGLIQTADQLRFSYLAVIEGAKFIMGDSSVQDQWKELSHEDLEPPPEHIPPPPRPPKRILEPHNGKCREFFPNHQWVKEETQEDKDCPIKEEKGSPLNAAPYGIESMSQDTEVRSRVVGGSLRGAQAASPAKGEPSLPEKDEDHALSYWKPFLVNMCVATVLTAGAYLCYRFLFNSNT
The Kd is the equilibrium constant for the complex coming apart. For B1, in data set [1], the phosphatase activity entry is “no measurable activities”. For the same molecule, the “shape of ITC titration curve” value in data set [2] is “displayed two peaks”. Moreover, the “affinity compared with wild-type enzyme” value in data set [3] (F2Pmp peptide, previously determined (24)) is reported as “same affinity as the wild-type enzyme”. In data set [3] (ITC, 25° C. and pH 7.0, data from (24)), the dissociation constant (Kd) was 190 ± 30 nM.

B2: C215S/Q262A: PTP1B double mutant, Cys215 to Ser and Gln262 to Ala (protein, UniProt P18031 1-435, looked up, variant C215S Q262A)
Tyrosine-protein phosphatase …: B1 Tyrosine-protein phosphatase … with Q262A
For the molecule B2, the phosphatase activity result in data set [1] is listed as “no measurable activities”. Further, the “shape of ITC titration curve” value in data set [4] was “displayed two peaks”.

B3: Ac-Asp-Ala-Asp-Glu-F2Pmp-Leu-NH2 (peptide)
peptide: Ac-DADE[F2Pmp]L-NH2
notes: Synthetic hexapeptide printed in three-letter code; also called F2Pmp-containing peptide; non-hydrolyzable substrate analog
As to B3, the figures for the Kd in data set [5] and in data set [6] were 6.8 nM and 1300 nM, respectively.
